One assay concerns FAM83A localization. In words: FAM83A nuclear translocation upon Wnt3a treatment. Type of assay: cell-based. Conditions: confocal microscopy, nucleo-plasmic separation; Wnt3a 100 ng/mL; HEK293T, PANC-1. Here is the method: Protein interactions were analyzed by western blotting (n = 3). Scale bars: 10 µm. *P < 0.05; **P < 0.01; ***P < 0.001. Data were presented as mean ± SD
Protein interactions were analyzed by western blotting (n = 3). c The level of β-catenin ubiquitination with or without Flag-tagged FAM83A overexpression or BLK kinase knockdown after MG132 treatment in HEK293T cells. Cell lysates were used for IP and western blotting with the indicated antibodies (n = 3). d The level of β-catenin ubiquitination with or without Flag-tagged FAM83A, Y138A, or Y138D mutants overexpression after MG132 treatment in HEK293T cells. […] Cell lysates were used for IP and western blotting with the indicated antibodies (n = 3). f The localization of Flag-tagged FAM83A and its Y138A, Y138D mutants in HEK293T cells were analyzed with confocal microscopy. g The protein level of cytoplasmic and nuclear β-catenin in HEK293T cells with or without Flag-tagged FAM83A, Y138A, or Y138D mutants transfection and Wnt3a treatment. […]

A further assay deals with FAM83A expression. In words: FAM83A expression after Wnt3a treatment in PANC-1 cells. Type of assay: cell-based, human. An excerpt:
Fig. 7 FAM83A is a direct downstream target of Wnt/β-catenin signaling and forms positive feedback in pancreatic cancer cells. a–d Representative western blotting images of the protein and mRNA levels of FAM83A after Wnt3a treatment for indicated concentrations and times in PANC-1 cells (n = 3). e, f The protein and mRNA levels of FAM83A after β-catenin knockdown in PANC-1 cells. Cell lysates were used for western blotting with the indicated antibodies (n = 3). g FAM83A gene promoter-reporter luciferase activity in HEK293T cells with or without β-catenin overexpression (left) and PANC-1 cells with or without β-catenin knockdown (right) (n = 6). h The schematic diagram of FAM83A gene promoter truncation and deletion generation. i PACN-1 cells were subjected to chromatin immunoprecipitation using antibodies against TCF4 and IgG, and the fold change of TCF/IgG was quantified (n = 3). j Predicted TCF4/LEF-binding sequence in the FAM83A gene promoter from the JASPAR website. k Schematic diagram of the generated luciferase report plasmids and the relative luciferase activity after transfection with the plasmids in HEK293T cells with or without Wnt3a treatment (n = 6). l A ChIP experiment was used to detect binding between the β-catenin-TCF4 complex and the predicted TCF/LEF-binding element in the FAM83A promoter (TBE1 and TBE2). […]

Assay [1] relates to β-catenin destruction complex. Nature of the assay: Co-IP, β-catenin with AXIN1 and GSK3β in PANC-1 cells. Type of assay: cell-based, human. Conditions: peptide treatment or GFP-fusion transfection, n = 3.
Assay [2] relates to β-catenin ubiquitination (HEK293T cells). Nature of the assay: β-catenin ubiquitination in HEK293T cells. As to conditions: GFP-fusion transfection, n = 3. Type of assay: cell-based.
A further assay has as its system β-catenin stability. In words: β-catenin protein stability upon CHX treatment in PANC-1 cells. Type of assay: cell-based, human. Conditions: peptide treatment or GFP-fusion transfection, n = 3. Here is the method:
Fig. 8 Peptides disrupting FAM83A-β-catenin interaction inhibit Wnt/β-catenin signaling. a Identification of β-catenin binding α-helical peptide(s) in FAM83A DUF1669 (140aa–210aa) region. The secondary structure of the FAM83A DUF1669 (140aa–210aa) region was analyzed based on the PDB data (4urj). b The FaPC, FaP1, FaP2, and FaP3 fragments were constructed into pEGFP-C1 expression vector connection with a flexible linker ((GGGGS)n). The interactions between β-catenin and the four fragments were evaluated with Co-IP assays in HEK293T cells (n = 3). c, d The predicted docking model of FaP2, FaP3 with β-catenin 530–666 aa region. e, f Kinetic interactions of cell-penetrating peptide TAT-linked peptides with β-catenin was determined by surface plasmon resonance analyses. g Effect of CP-FaP2 and CP-FaP3 on β-catenin-FAM83A and β-catenin-TCF4 interactions in PANC-1 cells. Cells were treated with control (CP-FaPC), CP-FaP2, and CP-FaP3 (5 μM) for 24 hours. Cell lysates were used for IP and western blotting with the indicated antibodies (n = 3). h The schematic diagram of 7TGC plasmid construction and the fluorescence images of PANC-1 cells with control, CP-FaP2, and CP-FaP3 treatment. […]

Entries after “also recorded” stand apart in the source; their conditions may differ.

B1: Wnt3a: Wnt agonist, Abcam ab153563 (protein, UniProt P56704 19-352, looked up)
Protein Wnt-3a: SYPIWWSLAVGPQYSSLGSQPILCASIPGLVPKQLRFCRNYVEIMPSVAEGIKIGIQECQHQFRGRRWNCTTVHDSLAIFGPVLDKATRESAFVHAIASAGVAFAVTRSCAEGTAAICGCSSRHQGSPGKGWKWGGCSEDIEFGGMVSREFADARENRPDARSAMNRHNNEAGRQAIASHMHLKCKCHGLSGSCEVKTCWWSQPDFRAIGDFLKDKYDSASEMVVEKHRESRGWVETLRPRYTYFKVPTERDLVYYEASPNFCEPNPETGSFGTRDRTCNVSSHGIDGCDLLCCGRGHNARAERRREKCRCVFHWCCYVSCQECTRVYDVHTCK
Take B1: in the assay with FAM83A localization, the FAM83A nuclear translocation entry is listed as “FAM83A shifted from the cell cytoplasm to nucleus upon Wnt3a treatment; also recorded: increased the nuclear translocation of FAM83A”. Moreover, in the assay with FAM83A expression, the “FAM83A mRNA level” value is “elevated both the protein and mRNA levels of FAM83A in dose- and time-dependent manners”. In the assay on FAM83A expression (n = 3), the FAM83A protein level result was “elevated both the protein and mRNA levels of FAM83A in dose- and time-dependent manners”.

B2: GFP-FaP2: FaP2 fused with GFP via a flexible linker ((GGGGS)n), pEGFP-C1 expression vector, transfected (protein)
chain: ASAEKPYLKEKSSATVYFQTVKHNNIRDLVRRCITRTSQVLVILMDVFTDVEIFCDILEAANKRGVFVCVLLDQGGVKLFQEMCDKVQISDSHLKNISIRSVEGEIYCAKSGRKFAGQIREKFIISDWRFVLSGSYSFTWLCGHVHRNILSKFTGQAVELFDEEFRHLYASSKPVMGLKSPRL
modifications: left off: EGFP (from the vector pEGFP-C1), end not stated, kept
notes: FaP2 fused with GFP via a flexible linker ((GGGGS)n), pEGFP-C1 expression vector, transfected
For B2, in assay [1], the “assembly of β-catenin destruction complex” value was “improved”. The β-catenin ubiquitination result in assay [2] is “improved”. In addition, in the assay on β-catenin stability, the “stability of β-catenin” value was “decreased”.

B3: GFP-FaP3: FaP3 fused with GFP via a flexible linker ((GGGGS)n), pEGFP-C1 expression vector, transfected (protein)
chain: ASAEKPYLKEKSSATVYFQTVKHNNIRDLVRRCITRTSQVLVILMDVFTDVEIFCDILEAANKRGVFVCVLLDQGGVKLFQEMCDKVQISDSHLKNISIRSVEGEIYCAKSGRKFAGQIREKFIISDWRFVLSGSYSFTWLCGHVHRNILSKFTGQAVELFDEEFRHLYASSKPVMGLKSPRL
modifications: left off: EGFP (from the vector pEGFP-C1), end not stated, kept
notes: FaP3 fused with GFP via a flexible linker ((GGGGS)n), pEGFP-C1 expression vector, transfected
For B3, the “assembly of β-catenin destruction complex” value in assay [1] is listed as “improved”. In assay [2], the β-catenin ubiquitination result is listed as “improved”. In addition, in the assay with β-catenin stability, the “stability of β-catenin” value was “decreased”.

(Values after PMC9935901, “B-lymphoid tyrosine kinase-mediated FAM83A phosphorylation elevates pancreatic tumorigenesis through interacting with β-catenin” (Signal Transduction and Targeted Therapy, 2023).)
